Assay results as given in patent US20130253173A1 (Novo Nordisk, published 2013).

T1: full length human TFPI (human, UniProt P10646 29-304)
T1 construct: also called wild type (wt) TFPI; TFPI Fl
T1 sequence: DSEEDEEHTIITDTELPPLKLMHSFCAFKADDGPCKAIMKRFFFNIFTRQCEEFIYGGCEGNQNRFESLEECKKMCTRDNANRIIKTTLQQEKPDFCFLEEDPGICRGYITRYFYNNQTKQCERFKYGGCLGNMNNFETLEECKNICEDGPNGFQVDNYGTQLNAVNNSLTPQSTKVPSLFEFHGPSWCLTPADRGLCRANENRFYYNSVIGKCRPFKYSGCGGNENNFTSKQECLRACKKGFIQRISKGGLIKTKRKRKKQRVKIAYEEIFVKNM

T2: Rabbit TFPI (rabbit, UniProt P19761 25-300, limits assumed)
T2 sequence (looked up): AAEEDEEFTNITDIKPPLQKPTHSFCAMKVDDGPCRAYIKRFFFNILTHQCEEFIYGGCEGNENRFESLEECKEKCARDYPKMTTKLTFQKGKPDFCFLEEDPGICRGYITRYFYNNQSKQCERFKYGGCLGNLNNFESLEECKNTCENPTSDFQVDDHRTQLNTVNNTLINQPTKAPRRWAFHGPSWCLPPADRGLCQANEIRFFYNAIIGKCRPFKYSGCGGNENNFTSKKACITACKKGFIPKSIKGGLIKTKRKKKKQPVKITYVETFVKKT

T3: truncated TFPI (1-239) (human, UniProt P10646 29-267)
T3 construct: Expressed in HEK293-F cells; conditioned medium used
T3 sequence: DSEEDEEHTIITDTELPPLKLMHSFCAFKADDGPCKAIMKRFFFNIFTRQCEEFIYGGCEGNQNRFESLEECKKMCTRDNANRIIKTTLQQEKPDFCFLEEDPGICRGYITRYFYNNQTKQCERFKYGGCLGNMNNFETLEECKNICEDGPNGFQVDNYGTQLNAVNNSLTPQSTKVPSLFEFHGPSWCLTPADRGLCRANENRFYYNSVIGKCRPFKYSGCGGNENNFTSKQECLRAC

T4: truncated TFPI (1-240) (human, UniProt P10646 29-268)
T4 construct: Expressed in HEK293-F cells; conditioned medium used
T4 sequence: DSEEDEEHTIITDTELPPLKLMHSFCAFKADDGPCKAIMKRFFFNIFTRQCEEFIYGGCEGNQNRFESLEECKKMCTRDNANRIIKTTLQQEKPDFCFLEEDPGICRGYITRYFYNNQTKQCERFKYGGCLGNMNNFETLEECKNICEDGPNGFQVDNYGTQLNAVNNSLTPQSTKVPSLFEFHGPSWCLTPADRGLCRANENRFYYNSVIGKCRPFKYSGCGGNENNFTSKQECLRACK


How the values were obtained:
full length human TFPI = molecular target: T1, full length human TFPI; assay: SPR (Biacore 3000), mAb captured on immobilised anti-mouse IgG, TFPI in solution, 1:1 model
Method: (§1) Binding interaction analysis was obtained by Surface Plasmon Resonance in a Biacore 3000. Capture of the relevant monoclonal antibody at a fixed concentration was obtained with immobilised mouse anti-IgG. Different concentrations of TFPI were tested. Determination of binding constants (kₒₙ, koff, KD) was obtained assuming a 1:1 interaction of TFPI and the antibody of interest.

Rabbit TFPI = molecular target: T2, Rabbit TFPI; assay: as above
Method: as §1

truncated TFPI (1-239) = molecular target: T3, truncated TFPI (1-239); assay: binding of TFPI variants to anti-TFPI MAbs relative to TFPI-WT (=1.0); ELISA or ForteBio with HEK293-F conditioned medium, Example 7
Method: (§2) The effect of truncating the C-terminal tail of TFPI on TFPI's binding affinity to MuTFPI22F66, MuTFPI22F71, MuTFPI22F74, MuTFPI22F79 and MuTFPI22F132 was analyzed by means of ELISA, or real-time binding analysis, using the ForteBio platform. […] The ELISAs, or the real-time binding analyses, were carried out using the conditioned medium from the cell cultures.
(§3) The concentrations of wt TFPI and truncated TFPI mutants in the conditioned medium were estimated by means of an ELISA that binds TFPI K1-K2 (Goat anti-TFPI, in-house) and K2 (MAb4F36, in-house). The binding to these antibodies is not affected by the truncations. Alternatively, biotin-labelled MAb4F36 was captured on streptavidin coated BioSensor tips (ForteBio) and used for concentration estimations.
(§4) In the ELISA setting, the effect of the mutations on TFPI's ability to bind to MuTFPI22F66, MuTFPI22F71, MuTFPI22F74, MuTFPI22F79 or MuTFPI22F132 was analyzed using each of the listed MAbs as capturing antibody and using MAb4F36 for detection. Direct binding of TFPI variants to biotin-labelled MuTFPI22F66, MuTFPI22F71, MuTFPI22F74, MuTFPI22F79, and MuTFPI22F132, captured on streptavidin coated BioSensor tips (ForteBio), was measured using the ForteBio platform.

truncated TFPI (1-240) = molecular target: T4, truncated TFPI (1-240); assay: as above
Method: as §2, §3, §4

Kd (full length human TFPI)	Kd (Rabbit TFPI)	binding result (truncated TFPI (1-239))	binding result (truncated TFPI (1-240))	Binder
0.002 nM				MuTFPI4F110 (antibody, mouse IgG1, V domains shown, also called anti-TFPI4F110; mAb 4F110) VH: QVQLQQSGAELVKPGASVKLSCKASGYTFISYYMYWVKQRPGQGLEWIGEINPSNGDTNLNEKFKSKATLTVDKSSSTVYMQLSSLTSEDSAVYYCTRWDRFDGFVYWGQGTLVTVSA VL: ETTVTQSPASLSMAIGGKVTIRCIISTNIDDDINWYQQKPGEPPKLLISEGNTLRPGVPSRFSSSGYGTDFVFTIENMLSEDVADYYCLQSDDLPYTFGGGTKLEIKR
0.8 nM	0.18 nM	no binding		MuTFPI22F71 (antibody, mouse IgG1, V domains shown, also called anti-TFPI22F71) VH: EVQLQQSGTVLARPGASVKMSCKASGYSFTTYWIHWVKQRPGQGLEWIGAIDPGNSDATYSQKFKDKAKLTAVTSASTAFMELNSLTNDDSAVYYCSREVYYGYDGDYFDYWGQGTTLTVSS VL: DIVLTQSPASLAVSLGQRATISCRASESVSVHGTHLMHWYQQKPGQPPKLLIYAASKLESGVPARFSGSGSETDFTLNIHPVEEEDAATYFCQQSIGDPWTFGGGTKLEIKR
0.6 nM	3.76 nM	no binding	no binding	MuTFPI22F66 (antibody, mouse IgG1, V domains shown, also called anti-TFPI22F66) VH: EVQLQQSGPELVKPGASMKISCKASGYSFTGYPMNWVRQSHGKNLEWIGLINPYNGDTTFNQKFKGKATLTVDKSSSTAYMELLSLTSEDSAVYYCARGTYEYVDYWGQGTTLTVSS VL: QIVLTQSPTIMSASPGERVTMTCSASSSVFYMHWYQQKPGSSPRLLIYDTSILSSGVPVRFSGSGSGTSYSLTIRRMEAEDAATYYCQQWSSYPLTFGAGTKLELKR
